How the values were obtained:
[1] = test system: CCCCCCCCCCCCCCCC(=O)Oc1ccc([N+](=O)[O-])cc1; assay: purified protein; details: 50 mM sodium phosphate pH 7, 40 °C
[2] = test system: CCCCCCCC(=O)Oc1ccc([N+](=O)[O-])cc1; assay: purified protein; details: 50 mM sodium phosphate pH 7, 40 °C
[3] = test system: CCCCCCCCCCCC(=O)Oc1ccc([N+](=O)[O-])cc1; assay: purified protein; details: 50 mM sodium phosphate pH 7, 40 °C
[4] = test system: CCCC(=O)Oc1ccc([N+](=O)[O-])cc1; assay: purified protein; details: 50 mM sodium phosphate pH 7, 40 °C
[5] = molecular target: T1, FsCut (Fusarium vanettenii, UniProt P00590); assay: pNP release at […] nm, nonlinear Michaelis-Menten fit; details: read-out: FsCut; 50 mM sodium phosphate pH 7, 40 °C
T1 construct: gene CUT1

[6] = substrate: CCCCCCCC(=O)Oc1ccc([N+](=O)[O-])cc1; assay: purified protein; assay type: biochemical, Thermothielavioides terrestris; details: 50 mM sodium phosphate pH 7, 40 °C
[7] = substrate: CCCC(=O)Oc1ccc([N+](=O)[O-])cc1; assay: purified protein; assay type: biochemical, Thermothielavioides terrestris; details: 50 mM sodium phosphate pH 7, 40 °C
[8] = substrate: CCCCCCCCCCCCCCCC(=O)Oc1ccc([N+](=O)[O-])cc1; assay: purified protein; assay type: biochemical, Thermothielavioides terrestris; details: 50 mM sodium phosphate pH 7, 40 °C
[9] = substrate: CCCCCCCCCCCC(=O)Oc1ccc([N+](=O)[O-])cc1; assay: purified protein; assay type: biochemical, Thermothielavioides terrestris; details: 50 mM sodium phosphate pH 7, 40 °C
[10] = substrate: CCCCCCCC(=O)Oc1ccc([N+](=O)[O-])cc1; assay: purified protein; assay type: biochemical, Coprinopsis cinerea; details: 50 mM sodium phosphate pH 7, 40 °C
[11] = substrate: CCCC(=O)Oc1ccc([N+](=O)[O-])cc1; assay: purified protein; assay type: biochemical, Coprinopsis cinerea; details: 50 mM sodium phosphate pH 7, 40 °C
[12] = substrate: CCCCCCCCCCCCCCCC(=O)Oc1ccc([N+](=O)[O-])cc1; assay: purified protein; assay type: biochemical, Coprinopsis cinerea; details: 50 mM sodium phosphate pH 7, 40 °C
[13] = substrate: CCCCCCCCCCCC(=O)Oc1ccc([N+](=O)[O-])cc1; assay: purified protein; assay type: biochemical, Coprinopsis cinerea; details: 50 mM sodium phosphate pH 7, 40 °C
[14] = substrate: CCCCCCCC(=O)Oc1ccc([N+](=O)[O-])cc1; assay: purified protein; assay type: biochemical, Cryptococcus sp. S-2; details: 50 mM sodium phosphate pH 7, 40 °C
[15] = substrate: CCCC(=O)Oc1ccc([N+](=O)[O-])cc1; assay: purified protein; assay type: biochemical, Cryptococcus sp. S-2; details: 50 mM sodium phosphate pH 7, 40 °C
[16] = substrate: CCCCCCCCCCCCCCCC(=O)Oc1ccc([N+](=O)[O-])cc1; assay: purified protein; assay type: biochemical, Cryptococcus sp. S-2; details: 50 mM sodium phosphate pH 7, 40 °C
[17] = substrate: CCCCCCCCCCCC(=O)Oc1ccc([N+](=O)[O-])cc1; assay: purified protein; assay type: biochemical, Cryptococcus sp. S-2; details: 50 mM sodium phosphate pH 7, 40 °C

T1 sequence (P00590 32-230): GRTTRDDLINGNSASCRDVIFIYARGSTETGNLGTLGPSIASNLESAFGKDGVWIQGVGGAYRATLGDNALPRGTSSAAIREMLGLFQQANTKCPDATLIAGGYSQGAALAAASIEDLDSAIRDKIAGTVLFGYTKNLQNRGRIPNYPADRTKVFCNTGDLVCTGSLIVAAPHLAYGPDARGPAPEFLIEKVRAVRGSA

FsCut (Fusarium vanettenii)
Km [1]: 0.01 ± 0.00 mM
kcat [1]: 0.15 s⁻¹
kcat/Km [1]: 10600 ± 1060 M⁻¹ s⁻¹
Km [2]: 0.72 ± 0.01 mM
kcat [2]: 6.69 ± 0.24 s⁻¹
kcat/Km [2]: 9250 ± 260 M⁻¹ s⁻¹
Km [3]: 0.05 ± 0.01 mM
kcat [3]: 1.22 ± 0.03 s⁻¹
kcat/Km [3]: 22800 ± 2090 M⁻¹ s⁻¹

PbCut (Pyrenopeziza brassicae)
Km [1]: 0.04 ± 0.01 mM
kcat [1]: 0.08 s⁻¹
kcat/Km [1]: 2070 ± 250 M⁻¹ s⁻¹
Km [2]: 0.54 ± 0.07 mM
kcat [2]: 1.43 ± 0.09 s⁻¹
kcat/Km [2]: 2650 ± 190 M⁻¹ s⁻¹
Km [4]: 1.71 ± 0.17 mM
kcat [4]: 6.45 ± 0.52 s⁻¹
kcat/Km [4]: 3790 ± 70 M⁻¹ s⁻¹
Km [3]: 0.08 ± 0.01 mM
kcat [3]: 0.2 s⁻¹
kcat/Km [3]: 2500 ± 180 M⁻¹ s⁻¹

CCCC(=O)Oc1ccc([N+](=O)[O-])cc1 [pNP-C4]
Km [5]: 1.67 ± 0.04 mM

B1: TtCut (Thermothielavioides terrestris NRRL 8126) (protein)
chain: APTQPAGEAAVEARQLFSDTANDLENGVSSNCPKVIFICARGSTETGNLGSSVCPEVANGLKNYYPNQLWVQGVGGAYTADLASNALPGGTSTAAMQEAANMFNLAQQKCPNASVAAGGYSQGTAVVAGGIQSLSAAAKDQIKGVVLFGYTQAQQNHDTIPNFPVDKTMIFCAQGDLVCNGTLIVTAAHFSYITNGDASTKGPAWLHEKIGDA
Km [6]: 0.39 ± 0.01 mM
kcat [6]: 2.3 ± 0.06 s⁻¹
kcat/Km [6]: 5810 ± 50 M⁻¹ s⁻¹
Km [7]: 7.08 ± 0.09 mM
Km [8]: 0.50 ± 0.09 mM
Km [9]: 0.21 ± 0.00 mM

B2: CcCut (Coprinopsis cinerea) (protein)
chain: QLFCRDVYVFFARGTGEVGTLGTVVGPGLSAAVKLAVRDSVEFEGIDYPALVSGYLAGGDRGGARTMANKVSQTASRCPNAKIFISGYSQGAQVTHLAARQLSAADQARVTGVVTFGDPYRDDALPGGLQSRRKTYCNVGDLICAGLPTLLAPHFTYGSDTPDAARWIAARV
Km [10]: 1.67 ± 0.18 mM
Km [11]: 3.56 ± 0.15 mM
kcat [11]: 8.96 ± 0.39 s⁻¹
kcat/Km [11]: 2520 M⁻¹ s⁻¹
Km [12]: 2.90 ± 0.20 mM
Km [13]: 2.76 ± 0.05 mM

B3: CspCut (Cryptococcus sp. S-2) (protein)
chain: ATSSACPQYVLINTRGTGEPQGQSAGFRTMNSQITAALSGGTIYNTVYTADFSQNSAAGTADIIRRINSGLAANPNVCYILQGYSQGAAATVVALQQLGTSGAAFNAVKGVFLIGNPDHKSGLTCNVDSNGGTTTRNVNGLSVAYQGSVPSGWVSKTLDVCAYGDGVCDTAHGFGINAQHLSYPSDQGVQTMGYKFAVNKLGGSA
Km [14]: 0.05 ± 0.00 mM
kcat [14]: 3.81 ± 0.27 s⁻¹
kcat/Km [14]: 83200 ± 4200 M⁻¹ s⁻¹
Km [15]: 5.54 ± 0.50 mM
kcat [15]: 13.5 ± 0.25 s⁻¹
kcat/Km [15]: 2510 ± 270 M⁻¹ s⁻¹
Km [16]: 0.05 ± 0.00 mM
kcat [16]: 3.38 ± 0.12 s⁻¹
kcat/Km [16]: 70700 ± 6470 M⁻¹ s⁻¹
Km [17]: 0.05 ± 0.00 mM
kcat [17]: 3.49 ± 0.06 s⁻¹
kcat/Km [17]: 65970 ± 600 M⁻¹ s⁻¹

Source: PMC8577158, “Phylogenetic analysis and in-depth characterization of functionally and structurally diverse CE5 cutinases” (The Journal of Biological Chemistry, 2021)
